This note sets out measurements from the RNAGym collection of RNA variant scans (doi:10.7554/elife.90254).

To fix the notation:
B1: LINE1-full (parent)
chain: UACGUAGGUGGUUUUCCCCUGAUAGUGCUAAGGGGGCCUGGAAGUUUGGACUGGGCAGAGCUCAACACAGCGUGGCAAAGUGGCUGUGGCUAGACUGCCUCUCUGGAUUCCUCGUCACUCAGCAGGGCAUCUCUGAGAGAAAUGCC

Variants of B1 are the subject of the data set. As to the kind of experiment: self-cleavage, relative activity (ratio to wild type); higher = more cleavage; in vitro, sequencing; the parent is a self-cleaving ribozyme.
G33U C116U: the self-cleavage was 1.17. Consider G35C A67G, for which the self-cleavage was found to be 0.22. As for G36C A140G, the self-cleavage is 1.12. For G34A A77G, the self-cleavage amounted to 1.88. Regarding G36A U81A, the self-cleavage was found to be 2.04.

In the case of G36A U81G, the self-cleavage came out at 1.08. Take G33U A117G: the self-cleavage came out at 1.39. In the case of U39A A67U, the self-cleavage amounted to 0.07. For U39A A67G the value was 0.43.

As to C38G A138U, the self-cleavage came out at 1.31. Consider G36C G55A, for which the self-cleavage was found to be 0.13. With C38A U109C the figure was 1; with G35A A136U, 1.1; with G36A U62G, 0.01. For the variant G34C G82A, the self-cleavage came to 2.16. Turning to C38A U130C, the self-cleavage came out at 1.41.

Turning to C37U A142G, the self-cleavage was determined as 1.52. G35A U130C: the self-cleavage is 0.96. Consider G34A U52C, for which the self-cleavage stood at 1.1. For the variant G34A U52A, the self-cleavage came to 1.7. For G36A A121G the value was 1.1; for G34C A42G, 2.94. Regarding G34U A65G, the self-cleavage came out at 0.02. On to G34A A92G, for which the self-cleavage was determined as 0.08. As for G33U A142G, the self-cleavage is 0.88. Turning to C37A U100C, the self-cleavage is 1.56.

On to C37A U100A, for which the self-cleavage turned out to be 0.93.

As to C37G A67U, the self-cleavage was determined as 0.12. For G36C A117G the value was 1.51; for U39A A77G, 2.32. As for C37A U143C, the self-cleavage amounted to 0.75.

As to G35U A78U, the self-cleavage stood at 2.1. Take C37A A129G: the self-cleavage was found to be 1.22. For C38A A141U the value was 1.49; for G36A U45G, 0.92; for C37G U130G, 0.68.

Take G35A A129U: the self-cleavage turned out to be 1.62. For the variant C37U A43G, the self-cleavage turned out to be 1.32. For the variant G36U U45C, the self-cleavage was 1.13.

In the case of G36A U85A, the self-cleavage came to 0.04. Turning to G33U U130A, the self-cleavage came to 0.9.

As to G35A A67G, the self-cleavage stood at 0.22. Consider G34C A50U, for which the self-cleavage amounted to 1.81. Turning to C37U U39A, the self-cleavage is 1.12. For C37U U39C the value was 1.26.

With G35U G127A, the self-cleavage was determined as 1.22.

For G35A A92G, the self-cleavage is 0.02.

Consider G35A A138G, for which the self-cleavage is 1.22.

In the case of C38U U115A, the self-cleavage stood at 1.46. For C38U U115C the value was 1.6; for C37U C146U, 1.27; for G36A A142G, 1.09. With C38U C95U the figure was 0.21; with C38U G60A, 0.05; with G35A U115C, 1.03. On to G35A U115A, for which the self-cleavage turned out to be 1.17.

For the variant C38A A140G, the self-cleavage is 1.28. As for C37U U91C, the self-cleavage was 0.27.

Consider C37G U45A, for which the self-cleavage was found to be 0.85. As to G35A A121U, the self-cleavage worked out at 0.97. Turning to C37U U143A, the self-cleavage came to 1.14. For C37U A79C, the self-cleavage stood at 1.22. For G36C U87C the value was 0.25. Consider C37G, for which the self-cleavage amounted to 1.13. Turning to C37A, the self-cleavage is 1.04. For C37U, the self-cleavage came out at 1.23. Regarding G33U A57G, the self-cleavage was found to be 0.64. With G36U U73A, the self-cleavage amounted to 0.46. In the case of G35A U100A, the self-cleavage was 0.31. For G34A G70A, the self-cleavage was determined as 0.11. For the variant G34C U47C, the self-cleavage was found to be 1.79.

For G34C U47A, the self-cleavage was 0.64.

On to C38U U134C, for which the self-cleavage worked out at 1.14. With G34A U115C the figure was 2.03; with G34A U115A, 1.08; with C38U U45C, 1.39. Regarding U39A A69U, the self-cleavage stood at 0.04.

Take U39A A69G: the self-cleavage was 0.55. For G36A C116U, the self-cleavage came to 1.41. Consider G34A A64G, for which the self-cleavage was 0.12.

For the variant G34A U46C, the self-cleavage turned out to be 1.27. On to G34U U39A, for which the self-cleavage was found to be 1.89. Regarding C37U C56U, the self-cleavage came to 0.11. Take C37A A92C: the self-cleavage stood at 0.2. With G35U A67G the figure was 0.35. With G35A G105A, the self-cleavage was found to be 1.15. For the variant G35A U62A, the self-cleavage turned out to be 0.05.

Consider G35A U62C, for which the self-cleavage amounted to 0.03. Regarding G36A U102C, the self-cleavage stood at 1.14. On to U39A A78G, for which the self-cleavage is 1.38. Take U39A A78U: the self-cleavage was 1.98.

Take G36A C63U: the self-cleavage was 0.36. Take G36U U52A: the self-cleavage came out at 0.64. With G33U A67U the figure was 0.17. Regarding G33U A64G, the self-cleavage was found to be 0.21. With G33U A64U the figure was 0.41; with C38A U115C, 1.14; with G34U A141G, 1.56.

For G36A U39A, the self-cleavage is 1.3.

Consider G34A A67G, for which the self-cleavage came to 0.35. Regarding C37A U47A, the self-cleavage stood at 1.12. With G34U U134A, the self-cleavage stood at 1.04.

G34U U134C: the self-cleavage stood at 1.57. With C37G U52C the figure was 0.75; with G33U G75A, 0.78. Take G35U U100C: the self-cleavage was found to be 1.85.

As for C37U A136U, the self-cleavage amounted to 1.49. For C37G U143C the value was 1.38; for G33U U87A, 0.03; for G33U A79G, 1.51.

Take G35A C95A: the self-cleavage amounted to 0.07. In the case of G36U U119A, the self-cleavage amounted to 1.4. As for C38U U47C, the self-cleavage came to 0.93. For the variant G34U C116U, the self-cleavage was found to be 1.46. C37U U96A: the self-cleavage stood at 0.04. G34C C56G: the self-cleavage came out at 0.03. Consider G34U U132C, for which the self-cleavage turned out to be 1.51.

On to G36A A94G, for which the self-cleavage was determined as 0.34. Turning to C37U A121G, the self-cleavage stood at 1.62. Turning to C38A U132C, the self-cleavage was found to be 1.02. For C38U A69G, the self-cleavage was 0.49. Regarding C37U U45C, the self-cleavage was 1.02. Consider G36A A59U, for which the self-cleavage was 0.67.

For the variant C37A A64U, the self-cleavage came to 0.35. In the case of G36A U108C, the self-cleavage came out at 1.37. Consider G36A U108A, for which the self-cleavage turned out to be 1.23. In the case of G36U A94G, the self-cleavage was 0.12. G34U A129G: the self-cleavage is 1.98. With G33U U143C the figure was 0.61. In the case of G34A A107G, the self-cleavage was determined as 2.74. As for C38A A121U, the self-cleavage came out at 1.42.

In the case of G34U U52A, the self-cleavage is 1.22. C37G U47C: the self-cleavage came to 0.71. Consider C37G U47A, for which the self-cleavage came to 1.11. Turning to G34A U85C, the self-cleavage was determined as 0.12.

Turning to G34A U85A, the self-cleavage stood at 0.1. Regarding U39A, the self-cleavage was determined as 1.34.

Turning to G34A A43C, the self-cleavage turned out to be 1.23. On to G34A A43G, for which the self-cleavage is 0.73. Consider G34A A121G, for which the self-cleavage amounted to 1.16. For G34A A121U the value was 1.22. As to G35U A124U, the self-cleavage came out at 1.41. As to G36C A64C, the self-cleavage stood at 0.35. As to C38U A138G, the self-cleavage was determined as 0.83. With C37G U119C the figure was 1.46; with G35A A43G, 0.71. For the variant C37G U87C, the self-cleavage came out at 0.2.

With G36U U62A, the self-cleavage stood at 0.03. For G34A G144A the value was 1.31; for C37G U112C, 0.28. For G35A U73C the value was 1.19; for G36U U134C, 1.99; for C37A A142G, 1.24.

As for G34A U100C, the self-cleavage amounted to 1.37.

For the variant G33U G114A, the self-cleavage was 1.36.

Take G35U A43G: the self-cleavage turned out to be 1.93.

Regarding C38A U52C, the self-cleavage was determined as 0.99. In the case of G35A U87A, the self-cleavage came to 0.08. For the variant G35U A140U, the self-cleavage turned out to be 1.19. Take G35U A140G: the self-cleavage worked out at 1.21. As to G34A A142G, the self-cleavage was 1.45. For U39A A92G, the self-cleavage is 0.1. For G34C A107G the value was 1.12; for G34U A77G, 2.2; for G35C U96C, 0.26. On to G36A U73A, for which the self-cleavage was 1.84. With G35A A124G the figure was 0.61.
